B1: Guanyl-specific ribonuclease T1, P00651 (parent)
chain: MMYSKLLTLTTLLLPTALALPSLVERACDYTCGSNCYSSSDVSTAQAAGYQLHEDGETVGSNSYPHKYNNYEGFDFSVSSPYYEWPILSSGDVYSGGSPGADRVVFNENNQLAGVITHTGASGNNFVECT

Variants of: B1
Conditions: Aspergillus oryzae (strain ATCC 42149 / RIB 40), pH 6, Thermal, DSC, sodium acetate calcium acetate 20 mM 2 mM, Mops 50 mM, reversible: yes, structure 1RN1, whole UniProt chain shown; for ddG of mutation (higher = less stable) / heat capacity change of unfolding / unfolding free energy: 25 °C

| Variant | ddG of mutation (higher = less stable) [kcal/mol] | heat capacity change of unfolding [kcal/mol/K] | unfolding free energy [kcal/mol] | Tm [°C] | change of melting temperature, mutant - wild type (higher = more stable) [°C] | unfolding enthalpy (calorimetric) [kcal/mol] |
| --- | --- | --- | --- | --- | --- | --- |
| Y50W W85Y | -0.29 | 0.98 | 8.1 | 56.6 | -0.6 | 101 |
| Y68W | 0.14 | 0.98 | 7.67 | 56.6 | -0.6 | 96.1 |
| Y71W |  | 0.98 | 8.56 | 55.9 | -1.3 | 107 |
| Y68W W85Y | 1.03 | 0.98 | 6.76 | 53.7 | -3.5 | 91.8 |
| Y71W W85Y | 0.91 | 0.98 | 6.91 | 52.8 | -4.4 | 95.1 |
| Y50W | -1.24 | 0.98 | 9.03 | 58.8 | 1.6 | 106 |
| W85Y H118A | 1.53 | 0.98 | 6.26 | 53.2 | -4 | 87 |
| H66T W85Y | 0.93 | 0.98 | 6.88 | 53.9 | -3.3 | 92.5 |
| W85Y | 0.93 | 0.98 | 6.88 | 54.3 | -2.9 | 91.8 |
| H66T | 0.26 | 0.98 |  | 56.7 | -0.5 | 100 |
| H118A | 0.62 | 0.98 | 7.19 |  |  |  |

Source: FireProtDB (doi:10.1111/j.1432-1033.1994.tb18652.x)
